Assay results from article PMC5595714, “Activation of secondary cell wall biosynthesis by miR319‐targeted TCP4 transcription factor”.

T1: TCP4-HIS (UniProt Q8LPR5 1-420)
T1 sequence: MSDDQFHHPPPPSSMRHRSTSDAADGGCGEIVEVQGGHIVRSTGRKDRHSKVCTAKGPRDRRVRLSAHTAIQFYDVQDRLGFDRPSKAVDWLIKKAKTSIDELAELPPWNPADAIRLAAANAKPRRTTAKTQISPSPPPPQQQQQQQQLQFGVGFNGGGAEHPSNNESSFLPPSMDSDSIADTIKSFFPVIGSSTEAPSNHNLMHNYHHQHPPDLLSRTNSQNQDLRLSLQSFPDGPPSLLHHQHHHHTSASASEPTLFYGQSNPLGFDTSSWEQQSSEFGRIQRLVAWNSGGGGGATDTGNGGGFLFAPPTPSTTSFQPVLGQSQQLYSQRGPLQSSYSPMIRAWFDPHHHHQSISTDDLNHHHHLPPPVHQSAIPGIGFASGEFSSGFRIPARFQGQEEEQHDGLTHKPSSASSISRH

T2: rTCP4-HIS (UniProt Q8LPR5 1-420)
T2 sequence: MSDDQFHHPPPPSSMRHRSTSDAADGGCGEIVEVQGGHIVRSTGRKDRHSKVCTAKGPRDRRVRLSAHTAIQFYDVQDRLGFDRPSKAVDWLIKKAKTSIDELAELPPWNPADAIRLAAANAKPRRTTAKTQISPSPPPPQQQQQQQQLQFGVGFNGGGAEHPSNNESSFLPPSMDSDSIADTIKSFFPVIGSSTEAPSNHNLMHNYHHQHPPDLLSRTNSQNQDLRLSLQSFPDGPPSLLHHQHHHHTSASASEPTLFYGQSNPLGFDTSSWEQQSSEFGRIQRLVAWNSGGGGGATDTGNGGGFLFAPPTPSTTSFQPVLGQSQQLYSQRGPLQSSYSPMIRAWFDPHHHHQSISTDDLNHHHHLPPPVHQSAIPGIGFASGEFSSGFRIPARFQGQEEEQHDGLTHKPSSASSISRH

B1: VND7 promoter cold probe (dsDNA)
DNA 1: ATTGTTGGGTGGTCCCATAAAAAT
DNA 2: ATTTTTATGGGACCACCCAACAAT
B2: VND7 promoter probe (dsDNA)
DNA 1: ATTGTTGGGTGGTCCCATAAAAAT
DNA 2: ATTTTTATGGGACCACCCAACAAT

Tests used:
TCP4-HIS [1] = biological target: T1, TCP4-HIS; assay: competition; 10x and 50x unlabeled probe against N1, dose-dependent; 20 mM HEPES-KOH pH 7.8, 100 mM KCl, 1 mM EDTA, 0.1% BSA, 10 ng herring sperm DNA, 10% glycerol; 100 fmol probe, 1 ug protein, 20 uL, 30 min, room temperature; details: protein: recombinant; tags: His (pET32a fusion); chain copies: 2; blunt
TCP4-HIS [2] = biological target: T1, TCP4-HIS; assay: EMSA; 20 mM HEPES-KOH pH 7.8, 100 mM KCl, 1 mM EDTA, 0.1% BSA, 10 ng herring sperm DNA, 10% glycerol; 100 fmol probe, 1 ug protein, 20 uL, 30 min, room temperature; details: protein: recombinant; tags: His (pET32a fusion); chain copies: 2; label: biotin 3'; blunt
rTCP4-HIS = biological target: T2, rTCP4-HIS; assay: as above; details: protein: recombinant; tags: His (pET32a fusion); chain copies: 2; label: biotin 3'; blunt

Binder	binding result (TCP4-HIS [1])	binding result (TCP4-HIS [2])	binding result (rTCP4-HIS)
B1	binds		
B2		binds	binds
